Data: US20160053277A1, “Compositions Having Dicamba Decarboxylase Activity and Methods of Use” (PIONEER HI-BRED INTERNATIONAL, INC., priority 2013, published 2016)

How the values were obtained:
[1] = Saturation mutagenesis of SEQ ID NO:109: dicamba decarboxylation activity of point mutants (carbon dioxide released); settings: decarboxylation activity (carbon dioxide released) of point mutant compared with unmutated backbone protein; backbone SEQ ID NO: 109
[2] = 14C assay with IPTG-induced recombinant E. coli cells: 14CO2 captured from [14C]-carboxyl-labeled dicamba; settings: for decarboxylation activity of dicamba: among the 108 sequences tested, recombinant E. coli cells; for Enzymatic Detection level: dicamba decarboxylation activity of the protein of the given SEQ ID NO, High / Low / No; for Dicamba Decarboxylase Activity: induced recombinant E. coli cells, [14C]-carboxyl-labeled dicamba, 14CO2 capture

B1: 44 (protein, listed as Mycobacterium avium)
chain: MARIITVEEHFQHPEVSARVAELTGPAVEGLAEFGNAFSLDPDSTARLGGNRLAHMDQVGIDVQVVSHGNGSPGTLQHPEAVELCRRVNNDLAAQIAENPDRFRGFATLPLYDPAAAAEELRRCVGDLGFVGALIAGSYDGLFLDDERFDPILTAAEAVDFPIYVHPGLPEAPVSQRYYAGSWPASVHMMFSGPAFGWHAEAGIHIVRLILSGALDRHPTLKLLSGHWGELAAFYLERLDETLGLLPTGLERAPSDYYRQQVWITPSGMYNQNQLNFMTAELGAQRIIYSEDFPYVVRDNVSTFLEQAGLSEADTHAIAHTNAEALLRI
- Fold Activity [1]: 0.7
- decarboxylation activity of dicamba [2]: showed decarboxylation activity of dicamba
- Enzymatic Detection level [2]: High
- Dicamba Decarboxylase Activity [2]: High

B2: 2 (protein, listed as Serratia sp.)
chain: MAKIICLEEHTLDKALVMASMPAALEQAPFLSDWGKTVTDGNLPDRSRPQIEKNDLINIKGADIGRGRLDDMDVAGITMQVLSVGGFPHLISAAEGVDLNRAANDRLADAVNAHPDRFAAFATLPWAQPDSAEKELERAVKELGFKGALLNGRPSTHFLDHPDYDGLLARFNALGVPLYLHPGLPVRSVQQAYYGGFSDEVTARLSMFGWGWHHEAGIHLLRLILSGAFDKYPNLQVISGHWGEMLPFWLQRLDDSLPQAATGLRRTIAQTFKEQVYVTPSGMLTLPHFQFIYALLGAERIIFSVDYPYQTLDGVKAFIQSLPVPEEAKEAIAFRNAERLLGLTS
- Fold Activity [1]: 1.1
- decarboxylation activity of dicamba [2]: showed decarboxylation activity of dicamba
- Enzymatic Detection level [2]: High
- Dicamba Decarboxylase Activity [2]: High

B3: 53 (protein, listed as Granulicella tundricola)
chain: MARTITLEEHFVTDSFLRATGAYDKPAPPWLAQLQPKLLDLGDGRIAAMDEAGIDLQVLSLAALGFDALDAATATPLVHDINDELAAAVRANPTRLAAFASLALKDPQSAARELERAIQKLGFRGVLLDGTTDGLFLDDPRFTPVFEAAVALNVPIYLHPAPPPESVFDTYFTGLPEGVGQMLSIAGWGWHAETALHTLRLITNGVFDRYPTLQLIIGHMGEMLPMALARTSKALSHAARLRQPVAAYFQSNIHLTTSGYFTQPPLRCALDVVGIDRLMFSIDYPFSANTLGRDYLTELEQTLTPEDLAKLIHRNAESLLNLS
- Fold Activity [1]: 1.6
- decarboxylation activity of dicamba [2]: showed decarboxylation activity of dicamba
- Enzymatic Detection level [2]: High
- Dicamba Decarboxylase Activity [2]: High

B4: 50 (protein, listed as Streptomyces sp.)
chain: MARIVTLEEHWTDPAVTAAGMPNLLDHVPGYAAAFDPDTGMPYPRHPELLEDLGAARIADMDRHGITTQVLSLVNTFLPADVAPRLTAAANDAMAAAVEAFPGRFAAFATLPTAVPGAAADELRRCVGELGFVGTMIMGRTDGEFLDQPRFDPILRAASDLSVPVYLHPAPPPVAVSEASYAGGLSPAVSAAFRLAAWGWHQETAVHLLHLVLAGVLDRYPGLQFVLGHWGEFIPFYLDRLDESMPRRMTGLDRTFREYFRDNVFITPSGMFSQAQLRYCADTVGTDRIIHSVDFPMLGNEGAVSFLTDSHLSREDQEKIAHGNADALLGLG
- Fold Activity [1]: 1.7
- decarboxylation activity of dicamba [2]: showed decarboxylation activity of dicamba
- Enzymatic Detection level [2]: High
- Dicamba Decarboxylase Activity [2]: High

B5: 47 (protein, listed as Serratia odorifera)
chain: MAKIICLEEHTLDKALVMASMPAALAQAPFLSDWGKTITDGNLPDRSRPQIEKNDLINVKGADIGRGRLDDMDEAGITMQVLSVGGFPHLISAAEGVDLNRAANDRLANAVNAHPDRFAAFATLPWAQPDAAEKELERAVKELGFKGALLNGRPSIHFLDHPDYDGLLARFNALGVPLYLHPGLPVRSVQQAYYSGFSDEVTARLSMFGWGWHHEAGIHLLRLILSGAFDKYPNLQVISGHWGEMLPFWLQRLDDSLPQAATGLRRTITQTFREQVYVTPSGMLTLPHFQFIYALLGAERILFSVDYPYQTLDGVKAFIQSLPVPEEAKEAIAFRNAERLFGLTS
- Fold Activity [1]: 1.2
- decarboxylation activity of dicamba [2]: showed decarboxylation activity of dicamba
- Enzymatic Detection level [2]: High
- Dicamba Decarboxylase Activity [2]: High

B6: 43 (protein, listed as Rhizobium leguminosarum)
chain: MAQGKIALEEHFAIPETLQDSAGFVPGDYWTELSARLLDIQDKRLRLMDTHGIEKMILSLNAPAVQAIPDKAKAVEISRRANDFLAEQCVKNPNRFLGFAALPLQDPDAATQELQRCVTTMGFVGALVNGFSQEGDGTTPLYYDLPQYRPFWAEVEKLDVPFYLHPRNPLPQDSRIYAGHSWLMGPTWAFAQETAVHALRLMGSGLFDEHPALRIIVGHMGEGLPYMMWRIDNRNAWVKVEKSYPAKRPIADYFNENFYITTSGNFRTQSLIDAMLEIGADRILFSADWPFENVDHAANWFDSATISEADRLKIGRTNAVSLFKLDR
- Fold Activity [1]: 1
- decarboxylation activity of dicamba [2]: showed decarboxylation activity of dicamba
- Enzymatic Detection level [2]: High
- Dicamba Decarboxylase Activity [2]: High

B7: 48 (protein, listed as Amycolatopsis mediterranei)
chain: MASMKLYGLEEHFVTADVIEAWRRRDPGLAEPMMKWAVASDITPALLDVDGGRIAAMDDAGIDTTVLSLTTPGLQNLDAAEAVALQAPTNDLIAAAVRRHPGRFQGFATLATSAPAAAADELRRAVTELGLNGALVNANSRGRALDAPGFWDIYEAAEDLRAPVYLHPGVPVPAVTEAYYRGFGEPVNSMLATGAFGWHYDAGLTILRMIVAGVFDRFPGLQVILGHWGEVVLFYLDRVAAMDKLTALRRPIAEYFRSNIFITPGGISSHKYLRWSLETVGVERIMYASDYPFNTERAGSARRFLDTAPVDEAGRERIAYRNWEELIAGIRR
- Fold Activity [1]: 1.5
- decarboxylation activity of dicamba [2]: showed decarboxylation activity of dicamba
- Enzymatic Detection level [2]: High
- Dicamba Decarboxylase Activity [2]: High

B8: 51 (protein, listed as Mycobacterium gilvum)
chain: MARVIAIEEHYAHPGLQPAEALANLRKHPQLARIQDKLEDLGAGRLADMDAAGIDMQVLSHTVPGAEALPAAQAVDVVRQTNDDLAEVIAAHPDRFAGFAALPMRDPQAAATELQRAVGTLGFCGAMINGLIEGRFLDHPDFTPLLSTAADLGVPLYLHPSFPPPQVAQIYFGGLPPVLADLLATAGWGWHAETALHVLRLISTGVFDRLPELRVIVGHMGEMIPFALARIDTVLSPMTELRQPVAQYFQTNVWFTTSGYTTFPPLQCALSTVGIDRLIFSVDYPYTDNASARALLDTAPISPVDREKLAHATVEALLRV
- Fold Activity [1]: 1.7
- decarboxylation activity of dicamba [2]: showed decarboxylation activity of dicamba
- Enzymatic Detection level [2]: High
- Dicamba Decarboxylase Activity [2]: High

B9: 49 (protein, listed as Streptomyces sp.)
chain: MAKIIALEEHFSDPAVAKAGAARARALSPGFAASYSPASGLPYSPSPEVLENLAEKRLADMDAGGITMQVLSGLGAQTVPADVAPALVAGSNDKAAAAVRAHPDRFAAFAALPTATPEAAVAELDRSVNELGFVGTLIMGRTEGEFLDAPRFEPILARAAALKVPVFLHPGVPPREITDSNYAAGLPTGIGTRLQTAAWGWHQETAVHFLHLVHSGVLDRYPDLQFILGHWGEMIPFYLDRVDEALPQRATGLDRSFHEYFRENVYLAPSGMWSQAQLRFCLETVPLERIVFAVDYPFIGNEGAVPFLEKAELPQADKRKIAHENAERLLGL
- Fold Activity [1]: 2
- decarboxylation activity of dicamba [2]: showed decarboxylation activity of dicamba
- Enzymatic Detection level [2]: High
- Dicamba Decarboxylase Activity [2]: High

B10: 54 (protein, listed as Streptomyces sp.)
chain: MAKIIALEEHFSDPAVAKAGAARAQALSPGFAASYSPASGLPYSPSPEVLENLAEKRLADMDAGGITMQVLSGLGAQTVPADVAPALVAGSNDKAAAAVRAHPDRFAAFAALPTAAPEAAVAELDRSINELGFVGTLIMGRTEGEFLDAPRFEPILARAAALKVPVFLHPGVPPREITDSNYAAGLPTGIGTRLQTAAWGWHQETAVHFLHLVHSGVLDRYPGLQFILGHWGEMIPFYLDRVDEALPQRATGLDRSFHEYFRENVYLAPSGMWSQAQLRFCLETVPLERIVFAVDYPFIGNEGAVPFLEKAELPEADKRKIAHENAERLLGL
- Fold Activity [1]: 1.4
- decarboxylation activity of dicamba [2]: showed decarboxylation activity of dicamba
- Enzymatic Detection level [2]: High
- Dicamba Decarboxylase Activity [2]: High

B11: 52 (protein, listed as Streptomyces sp.)
chain: MAKIIALEEHFSDPAVAKAGAARAQALSPGFAASYSPASGLPYSPSPEVLENLAEKRLADMDAGGITMQVLSGLSAQTVPADVAPALVAGSNDKAAAAVRAHPDRFAAFAALPTAAPEAAVAELDRSVNELGFVGTLIMGRTEGEFLDAPRFEPILARAAALKVPVFLHPGVPPREITDSNYAAGLPTGIGTRLQTAAWGWHQETAVHFLHLVHSGVLDRYPDLQFILGHWGETIPFYLDRVDEALPQRATGLDRSFHEYFRENVYLAPSGMWSQAQLRFCLETFPLERIVFAVDYPFIGNEGAVPFLEKAELPEADKRKIAHENAERLLGL
- Fold Activity [1]: 1.9
- decarboxylation activity of dicamba [2]: showed decarboxylation activity of dicamba
- Enzymatic Detection level [2]: High
- Dicamba Decarboxylase Activity [2]: High

B12: 46 (protein, listed as Rhodococcus opacus)
chain: MARIITLEEHYLDPAIAAASAPLARELSPDFAAAYDPASGLSYTPSAQVLQDLGQRRIADMDTHGISMQVLSCLTTQQVPADVAPDLVRAANDTAAAAVRAHPDRFAAFAALPTTAPDAAATELARCIDDLGFVGTMINGRTDGEFLDAPRFDPILATAAARNVPIYLHPAVPPRATSDSNYAGLAPLVTARLQTSAWGWHQETAVHFLHLVLSGVLDRYPNLQFILGHWGEMIPFYLDRLDEALPQAVTNLDRTISDYVRENVYITPSGMFNQAQLQYCVETLGVDRILYSVDYPFIGNDGAVSFLDEANLPDEAKHQIAHQNTEKLLGL
- Fold Activity [1]: 1.1
- decarboxylation activity of dicamba [2]: showed decarboxylation activity of dicamba
- Enzymatic Detection level [2]: High
- Dicamba Decarboxylase Activity [2]: High
